Laboratory results reported in US20210269525A1 (BIOCYTOGEN PHARMACEUTICALS BEIJING, published 2021).
Like-named read-outs stand apart in the source and are kept apart here.

T1: Cynomolgus CD3 epsilon Protein, His Tag (Acrobiosystems, Cat #CDE-05226) (cynomolgus (Macaca fascicularis), UniProt Q95LI5 22-117)
T1 construct: also called monkey CD3e; not shown: His tag
T1 sequence: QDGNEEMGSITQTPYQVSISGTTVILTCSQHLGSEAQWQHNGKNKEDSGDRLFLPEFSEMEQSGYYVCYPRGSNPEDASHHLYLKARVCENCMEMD


Columns and labels:
[1] = target: T2, human CD3e (T-cell surface glycoprotein CD3 epsilon chain) (human, UniProt P07766 23-207); assay: cell-based or functional assay
[2] = target: T2, human CD3e (T-cell surface glycoprotein …); assay: flow cytometry, human PBMC, antibody 0.1 ug/mL, anti-human IgG Fc-Alexa Fluor647 (1:500), anti-hTcRβ-PerCP (1:30)
Procedure: (§1) PBMC cells were collected from a human subject. After being thawed, the cells were cultured for 3-4 hours. The medium was then discarded, and the cells were resuspended in phosphate-buffered saline (PBS). The cell concentration was then adjusted to 2×10⁶/25 μl PBS.
(§2) A 96-well plate was prepared. 25 ul of cell suspension was added to each well. […] The cells and the antibodies were incubated. After centrifuge, the residues were discarded. The samples were washed again. 25 ul of PBS was then added to each well to resuspend cells.
(§3) Anti-human IgG Fc-Alexa Fluror647 (1:500) and anit-hTcRβ PerCP (1:30) were then added to each well. The cells and the antibodies were incubated and then the cells were washed again by PBS. 300 ul of PBS was then added to each well to resuspend the cells. FACS was performed.

[3] = target: T3, monkey CD3e (Macaca fascicularis) on PBMC (Macaca fascicularis, UniProt Q95LI5 22-198); assay: flow cytometry, Macaca fascicularis PBMC, antibody concentration not given, anti-human IgG Fc-Alexa Fluor647 (1:500), anti-hTcRβ-PerCP (1:30)
T3 construct: Target on PBMC from Macaca fascicularis; also called mfCD3e; monkey PBMC
Procedure: A 96-well plate was prepared. 25 ul of cell suspension was added to each well. Anti-hCD3 antibodies were added to the 96-well plate. The cells and the antibodies were incubated for 15 minutes at 4° C. 185 ul PBS was then added to each well. After centrifuge at 2000 rpm for 5 minutes, the medium was discarded. The samples were washed again. 25 ul of PBS was then added to resuspend cells.
Anti-human IgG Fc-Alexa Fluror647 (1:500) and anti-hTcRβ PerCP (1:30) were then added to each well. The cells and the antibodies were incubated for 15 minutes at 4° C. 185 ul PBS was then added to each well. After centrifuge, the residues were discarded. The samples were washed again. 25 ul of PBS was then added to resuspend cells. […] In contrast, anti-hTcRβ PerCP cannot bind to monkey PBMC.

[4] = target: T2, human CD3e (T-cell surface glycoprotein …); assay: flow cytometry, human PBMC, antibody 0.01 ug/mL, anti-human IgG Fc-Alexa Fluor647 (1:500), anti-hTcRβ-PerCP (1:30)
Procedure: as §1, §2, §3

[5] = target: T1, Cynomolgus CD3 epsilon Protein, His Tag …; assay: SPR (Biacore), cynomolgus CD3e His tag
Procedure: The binding affinity of the anti-hCD3e antibodies with monkey CD3e (Cynomolgus CD3 epsilon Protein (SEQ ID NO: 39 AA Gln 22-Asp 117), His Tag, Acrobiosystems, Cat #CDE-05226) were also measured using surface plasmon resonance (SPR) using Biacore (Biacore, INC, Piscataway N.J.) by the methods as described in the examples.

[6] = target: T4, Histidine-tagged human CD3e protein (human, UniProt P07766 23-126); assay: SPR (Biacore), human CD3e
T4 construct: also called hCD3e-His; not shown: His tag

[7] = target: T2, human CD3e (T-cell surface glycoprotein …); assay: flow cytometry, human PBMC, antibody 1 ug/mL, anti-human IgG Fc-Alexa Fluor647 (1:500), anti-hTcRβ-PerCP (1:30)
Procedure: as §1, §2, §3

[8] = target: T2, human CD3e (T-cell surface glycoprotein …); assay: flow cytometry, human PBMC, antibody 0.1 µg/mL, anti-human IgG Fc-Alexa Fluor647 (1:500), anti-hTcRβ-PerCP (1:30)
Procedure: as §1, §2, §3

[9] = target: T2, human CD3e (T-cell surface glycoprotein …); assay: flow cytometry, human PBMC, antibody 10 µg/mL, anti-human IgG Fc-Alexa Fluor647 (1:500), anti-hTcRβ-PerCP (1:30)
Procedure: as §1
A 96-well plate was prepared. 25 ul of cell suspension was added to each well. Anti-hCD3e antibodies with different combinations of humanized 1B1 heavy chain variants and humanized 1B1 light chain variants were diluted to 20 ug/ml (2×) in PBS, and were added to the 96-well plate. The cells and the antibodies were incubated. After centrifuge, the residues were discarded. The samples were washed again. 25 ul of PBS was then added to each well to resuspend cells.
as §3

[10] = target: T4, Histidine-tagged human CD3e protein; assay: SPR (Biacore), human CD3e; remark: listed apart in the source
[11] = target: T2, human CD3e (T-cell surface glycoprotein …); assay: flow cytometry, human PBMC, antibody 1 µg/mL, anti-human IgG Fc-Alexa Fluor647 (1:500), anti-hTcRβ-PerCP (1:30)
Procedure: as §1, §2, §3

Row | Binder | EC50, luciferase of Jurkat-Luc-NFAT cells; antibody from supernatant [1] | upper left quadrant, percent of cells AF647+ / hTcRβ-PerCP- [2] | upper right quadrant, percent of cells AF647+ / hTcRβ-PerCP+ [2] | upper left quadrant, percent of cells AF647+ / hTcRβ-PerCP- [3] | upper right quadrant, percent of cells AF647+ / hTcRβ-PerCP+ [3] | upper left quadrant, percent of cells AF647+ / hTcRβ-PerCP- [4] | upper right quadrant, percent of cells AF647+ / hTcRβ-PerCP+ [4] | Kd [6] | koff [6] | kon [6] | upper left quadrant, percent of cells AF647+ / hTcRβ-PerCP- [7] | upper right quadrant, percent of cells AF647+ / hTcRβ-PerCP+ [7] | other results
1 | 10A4-H2K2-IgG1-LALA (antibody, V domains shown, Humanized; human IgG1 with LALA mutations; also called H2K2 (humanized 10A4)) VH: QVQLVQSGAEVKKPGASVKISCKASGYTFTSYYIHWVRQAPGQRLEFIGWIYPGNVNAKYNEKFKGRATITTDKSASTAYMELSSLRSEDTAVYYCAIKGGNYDWGQGTLVTVSS VL: DVVMTQSPLSLPVTLGQPASISCQSSQSLLDSDGKTYLNWLQQRPGQSPRRLIYLVSKLGSGVPDRFSGSGSGTDFTLKISRVEAEDVGVYYCWQGTHFPRTFGGGTKLEIK | 0.247 µg/mL | 8.05% | 53.3% | 44.2% | 3.1% | 2.42% | 11.6% | 1.96 nM | 0.000134 s⁻¹ | 68400 M⁻¹ s⁻¹ |  |  | EC50, luciferase of Jurkat-Luc-NFAT cells; purified antibody [1]: 0.263 µg/mL; Kd [5]: 8.21 nM; koff [5]: 0.000411 s⁻¹; kon [5]: 50100 M⁻¹ s⁻¹
2 | 10A4-H4K1-IgG1-LALA (antibody, V domains shown, Humanized; human IgG1 with LALA mutations; also called H4K1 (humanized 10A4)) VH: QVQLQQSGAEVKKPGASVRISCKASGYTFTSYYIHWVRQRPGQGLEFIGWIYPGNVNAKYNEKFKGRATLTTDKSASTAYMELSSLRSEDTAVYFCAIKGGNYDWGQGTLVTVSS VL: DVVMTQSPLSLPVTLGQPASISCQSSQSLLDSDGKTYLNWLQQRPGQSPRRLIYLVSKLGSGVPDRFSGSGSGTDFTLKISRVEAEDVGVYYCWQGTHFPRTFGGGTKVEIK | 0.234 µg/mL | 9.91% | 51.2% | 68.5% | 3.45% | 2.56% | 12% | 1.31 nM | 8.91e-05 s⁻¹ | 68100 M⁻¹ s⁻¹ | 12.4% | 76.8% | 
3 | 10A4-H3K2-IgG1-LALA (antibody, V domains shown, Humanized; human IgG1 with LALA mutations; also called H3K2 (humanized 10A4)) VH: QVQLVQSGAEVKKPGASVKISCKASGYTFTSYYIHWVRQRPGQRLEFIGWIYPGNVNAKYNEKFKGRATLTTDKSASTAYMELSSLRSEDTAVYFCAIKGGNYDWGQGTLVTVSS VL: DVVMTQSPLSLPVTLGQPASISCQSSQSLLDSDGKTYLNWLQQRPGQSPRRLIYLVSKLGSGVPDRFSGSGSGTDFTLKISRVEAEDVGVYYCWQGTHFPRTFGGGTKLEIK | 0.205 µg/mL | 12.2% | 61.3% | 45.1% | 1.69% | 2.75% | 15.2% | 2.02 nM | 0.000126 s⁻¹ | 62100 M⁻¹ s⁻¹ | 12.4% | 75.8% | 

More lines, main results first:

Row | EC50, luciferase of Jurkat-Luc-NFAT cells; antibody from supernatant [1] | upper left quadrant, percent of cells AF647+ / hTcRβ-PerCP- [2] | upper right quadrant, percent of cells AF647+ / hTcRβ-PerCP+ [2] | upper left quadrant, percent of cells AF647+ / hTcRβ-PerCP- [3] | upper right quadrant, percent of cells AF647+ / hTcRβ-PerCP+ [3] | upper left quadrant, percent of cells AF647+ / hTcRβ-PerCP- [4] | upper right quadrant, percent of cells AF647+ / hTcRβ-PerCP+ [4] | Kd [6] | koff [6] | kon [6] | upper left quadrant, percent of cells AF647+ / hTcRβ-PerCP- [7] | upper right quadrant, percent of cells AF647+ / hTcRβ-PerCP+ [7] | Binder | other results
4 | 0.475 µg/mL | 9.79% | 54.8% | 46% | 2.58% | 2.66% | 14% | 1.73 nM | 0.000107 s⁻¹ | 62100 M⁻¹ s⁻¹ | 14.3% | 74.7% | 10A4-H3K3-IgG1-LALA (antibody, V domains shown, Humanized; human IgG1 with LALA mutations; also called H3K3 (humanized 10A4)) VH: QVQLVQSGAEVKKPGASVKISCKASGYTFTSYYIHWVRQRPGQRLEFIGWIYPGNVNAKYNEKFKGRATLTTDKSASTAYMELSSLRSEDTAVYFCAIKGGNYDWGQGTLVTVSS VL: not shown | 
5 | 0.198 µg/mL | 10.7% | 55.6% | 52% | 2.39% | 2.62% | 12.9% | 2.12 nM | 0.00014 s⁻¹ | 65900 M⁻¹ s⁻¹ | 14.5% | 75% | 10A4-H3K1-IgG1-LALA (antibody, V domains shown, Humanized; human IgG1 with LALA mutations; also called H3K1 (humanized 10A4)) VH: QVQLVQSGAEVKKPGASVKISCKASGYTFTSYYIHWVRQRPGQRLEFIGWIYPGNVNAKYNEKFKGRATLTTDKSASTAYMELSSLRSEDTAVYFCAIKGGNYDWGQGTLVTVSS VL: DVVMTQSPLSLPVTLGQPASISCQSSQSLLDSDGKTYLNWLQQRPGQSPRRLIYLVSKLGSGVPDRFSGSGSGTDFTLKISRVEAEDVGVYYCWQGTHFPRTFGGGTKVEIK | 
6 |  |  |  | 86.8% | 9.46% |  |  |  |  |  |  |  | 1B1-H3K3-IgG1-LALA (antibody, V domains shown, Humanized; human IgG1 with LALA mutations; also called H3K3 (humanized 1B1)) VH: QVQLVQSGAEVKKPGASVKLSCKASGYTFTSYWMHWVRQRHGQGLEWIGNIYPDSGTTNYGEKFKTRVTLTVDTSTSTAYMELSSLRSEDTAVYYCTRDTSGQYYFDYWGQGTLVTVSS VL: DIVMTQSPDSLAVSAGERVTMNCKSSQSLLNSRTRKNYLAWYQHKPGQSPKLLIYWASTRESGVPDRFSGSGSGTDFTLTISSVQAEDVAVYYCVQSFSLRAFGGGTKLEIK | upper left quadrant, percent of cells AF647+ / hTcRβ-PerCP- [8]: 11.8%; upper right quadrant, percent of cells AF647+ / hTcRβ-PerCP+ [8]: 54.5%; upper left quadrant, percent of cells AF647+ / hTcRβ-PerCP- [9]: 9.61%; upper right quadrant, percent of cells AF647+ / hTcRβ-PerCP+ [9]: 63.7%; Kd [10]: 0.718 nM; koff [10]: 0.000501 s⁻¹; kon [10]: 698000 M⁻¹ s⁻¹; upper left quadrant, percent of cells AF647+ / hTcRβ-PerCP- [11]: 11.6%; upper right quadrant, percent of cells AF647+ / hTcRβ-PerCP+ [11]: 58.1%
